Experimental data reported in the Human Domainome abundance scans (Beltran et al. 2025).
± gives the uncertainty stated by the source.

B1: Tripartite motif-containing protein 6, residues 93 to 134; numbered along this chain, Q9C030 (parent)
chain: KAVLCADHGEKLQLFCQEDGKVICWLCERSQEHRGHHTFLVE
B2: Heterogeneous nuclear ribonucleoprotein U-like protein 2, residues 1 to 40; numbered along this chain, Q1KMD3 (parent)
chain: MEVKRLKVTELRSELQRRGLDSRGLKVDLAQRLQEALDAE

Variants of: B1
Test: abundance fitness (aPCA) (normalised: wild type 0, dead -1); higher = more abundant; growth selection in yeast, the domain comes from the species named
Details: Homo sapiens

Variant	abundance fitness
KAVLCADHGEKLQLFCQEDGKVICWLCERSQEHRGHHTFLME [V41M]	-0.143 ± 0.16
KAVLCADHGEKLQLFCQEDGKVICWLCERSQEHRGHHTFLNE [V41N]	0.041 ± 0.17
KAVLCADHGEKLQLFCQEDGKVICWLCERSQEHRGHHTFLPE [V41P]	0.036 ± 0.13
KAVLCADHGEKLQLFCQEDGKVICWLCERSQEHRGHHTFLQE [V41Q]	0.259 ± 0.1
KAVLCADHGEKLQLFCQEDGKVICWLCERSQEHRGHHTFLRE [V41R]	0.149 ± 0.057
KAVLCADHGEKLQLFCQEDGKVICWLCERSQEHRGHHTFLSE [V41S]	-0.051 ± 0.076
KAVLCADHGEKLQLFCQEDGKVICWLCERSQEHRGHHTFLTE [V41T]	0.064 ± 0.072
KAVLCADHGEKLQLFCQEDGKVICWLCERSQEHRGHHTFLWE [V41W]	-0.043 ± 0.076
KAVLCADHGEKLQLFCQEDGKVICWLCERSQEHRGHHTFLVA [E42A]	-0.852 ± 0.45
KAVLCADHGEKLQLFCQEDGKVICWLCERSQEHRGHHTFLVC [E42C]	-0.426 ± 0.22
KAVLCADHGEKLQLFCQEDGKVICWLCERSQEHRGHHTFLVD [E42D]	0.094 ± 0.16
KAVLCADHGEKLQLFCQEDGKVICWLCERSQEHRGHHTFLVT [E42T]	0.216 ± 0.23
KAVLCADHGEKLQLFCQEDGKVICWLCERSQEHRGHHTFLVY [E42Y]	-0.421 ± 0.21

Variants of: B2
Test: as above
Details: Homo sapiens

Variant	abundance fitness
M1A	-0.461 ± 0.067
M1C	-0.414 ± 0.19
M1D	-1.65 ± 0.32
M1E	-0.08 ± 0.078
M1F	-0.179 ± 0.19
M1G	-0.383 ± 0.066
M1H	-1.03 ± 0.24
M1K	-0.136 ± 0.087
M1L	-0.339 ± 0.097
M1Q	-0.514 ± 0.11
M1R	-0.236 ± 0.061
M1S	-0.589 ± 0.27
M1T	-0.564 ± 0.13
M1V	-0.277 ± 0.053
M1W	-0.354 ± 0.091
M1Y	-0.749 ± 0.41
E2A	-0.33 ± 0.061
E2C	-0.388 ± 0.088
E2G	-0.371 ± 0.06
E2H	-0.201 ± 0.15
E2I	-0.271 ± 0.12
E2K	-0.432 ± 0.079
E2L	-0.294 ± 0.068
E2P	-0.844 ± 0.1

Variant	abundance fitness
E2Q	-0.193 ± 0.091
E2R	-0.365 ± 0.07
E2S	-0.243 ± 0.082
E2T	-0.243 ± 0.13
E2V	-0.336 ± 0.094
E2W	-0.263 ± 0.067
E2Y	-0.161 ± 0.085
V3A	-0.107 ± 0.055
V3C	-0.357 ± 0.1
V3D	-0.202 ± 0.085
V3E	-0.279 ± 0.07
V3F	-0.374 ± 0.17
V3G	-0.325 ± 0.048
V3H	-0.603 ± 0.19
V3I	0.048 ± 0.13
V3K	-0.501 ± 0.1
V3L	-0.122 ± 0.063
V3P	-0.077 ± 0.063
V3Q	-0.328 ± 0.082
V3R	-0.567 ± 0.05
V3S	-0.245 ± 0.062
V3T	-0.114 ± 0.073
V3W	-0.432 ± 0.053
V3Y	-0.226 ± 0.088

Variant	abundance fitness
K4A	-0.06 ± 0.049
K4C	-0.181 ± 0.067
K4D	-0.082 ± 0.073
K4E	0.09 ± 0.062
K4F	-0.182 ± 0.17
K4G	-0.126 ± 0.047
K4H	0.335 ± 0.46
K4I	-0.317 ± 0.098
K4L	-0.123 ± 0.059
K4M	0.091 ± 0.11
K4P	-0.37 ± 0.074
K4Q	-0.028 ± 0.073
K4R	-0.152 ± 0.051
K4T	0.019 ± 0.088
K4W	-0.097 ± 0.058
K4Y	-0.112 ± 0.095
R5A	0.005 ± 0.048
R5C	-0.129 ± 0.064
R5D	0.181 ± 0.19
R5E	0.077 ± 0.061
R5F	-0.302 ± 0.15
R5G	-0.021 ± 0.048
R5I	-0.237 ± 0.096
R5K	0.194 ± 0.08

Variant	abundance fitness
R5L	-0.031 ± 0.059
R5M	-0.038 ± 0.096
R5N	-0.03 ± 0.19
R5P	-0.435 ± 0.074
R5Q	0.006 ± 0.055
R5S	0.046 ± 0.055
R5V	-0.35 ± 0.059
R5W	-0.256 ± 0.056
R5Y	-0.247 ± 0.16
L6C	-1.02 ± 0.13
L6D	-0.845 ± 0.23
L6E	-0.26 ± 0.066
L6F	-0.063 ± 0.15
L6G	-0.485 ± 0.049
L6H	-0.496 ± 0.12
L6I	-0.7 ± 0.31
L6K	-0.144 ± 0.089
L6M	0.348 ± 0.11
L6N	-0.236 ± 0.14
L6P	-0.48 ± 0.074
L6Q	-0.198 ± 0.075
L6R	-0.572 ± 0.052
L6S	-0.476 ± 0.059
L6T	0.024 ± 0.18

Variant	abundance fitness
L6V	-0.425 ± 0.06
L6W	-0.281 ± 0.056
L6Y	-0.46 ± 0.15
K7A	-0.069 ± 0.05
K7C	-0.158 ± 0.068
K7D	0.135 ± 0.072
K7F	-0.484 ± 0.12
K7G	0.015 ± 0.047
K7I	-0.388 ± 0.15
K7L	-0.143 ± 0.052
K7N	0.305 ± 0.11
K7P	-0.065 ± 0.06
K7Q	0.067 ± 0.08
K7R	-0.153 ± 0.051
K7S	0.141 ± 0.056
K7V	-0.274 ± 0.054
V8A	-0.077 ± 0.062
V8C	-0.146 ± 0.065
V8D	0.024 ± 0.075
V8F	-0.289 ± 0.12
V8G	-0.354 ± 0.05
V8I	-0.265 ± 0.2
V8K	-0.163 ± 0.11
V8L	-0.025 ± 0.054

Variant	abundance fitness
V8M	-0.04 ± 0.065
V8N	-0.27 ± 0.16
V8P	-0.298 ± 0.069
V8Q	-0.169 ± 0.062
V8R	-0.334 ± 0.049
V8S	-0.167 ± 0.057
V8T	0.033 ± 0.074
V8W	-0.435 ± 0.056
V8Y	0.072 ± 0.12
T9A	-0.04 ± 0.053
T9C	-0.054 ± 0.099
T9E	0.113 ± 0.053
T9G	-0.017 ± 0.05
T9H	0.163 ± 0.13
T9I	0.102 ± 0.15
T9K	0.099 ± 0.12
T9L	-0.27 ± 0.067
T9M	0.074 ± 0.12
T9P	-0.132 ± 0.066
T9Q	0.022 ± 0.068
T9R	-0.012 ± 0.049
T9S	-0.083 ± 0.054
